# Measurements reported in article PMC5694663.
# B1: mCherry-BATF1 (natural protein)
# chain: MPHSSDSSDSSFSRSPPPGKQDSSDDVRKVQRREKNRIAAQKSRQRQTQKADTLHLESEDLEKQNAALRKEIKQLTEELKYFTSVLSSHEPLCSVLASGTPSPPEVVYSAHAFHQPHISSPRFQP
# Biological target: JunB-6×His
# Test: co-purification
binder,measurement,value
B1,stoichiometry N,1
